Assay results from US11078465B2, “Alcohol dehydrogenase mutant and application thereof in synthesis of diaryl chiral alcohols” (Jiangnan University, priority 2018, dated 2021).
Entries after “also recorded” stand apart in the source; their conditions may differ.

Tests used:
Type in all cases: biochemical
[1] = Stereoselectivity on different substrates; details: for Stereoselectivity (ee): configuration in brackets
Method: (§1) In an embodiment of the present disclosure, a chromatographic analysis method is as follows: 100 μL of reactant liquid is taken, 500 μL of ethyl acetate is added, shaking is performed for 1-2 min, centrifugation is performed at 12,000 rpm for 2-5 min, supernatant liquid is taken into a centrifuge tube, after an organic phase naturally volatilizes completely, 500 μL of chromatographically pure ethanol is added, and chiral liquid chromatography and gas chromatography are performed to analyze the transformation rate and the ee value.
(§2) Method for determining optical purity ee:
(§3) As: molar concentration of (S)-CPMA obtained by liquid chromatography; and AR: molar concentration of (R)-CPMA obtained by liquid chromatography.
(§4) The reduction on prochiral carbonyl compounds by the alcohol dehydrogenase mutants obtained in Example 3 was studied. The pro-chiral carbonyl compounds include (4-chlorophenyl)-(pyridin-2-yl)-methanone (CPMK), phenyl-(pyridin-2-yl)-methanone, (4-chlorophenyl)-(phenyl)-methanone, (4-bromophenyl)(phenyl)methanone, (4-fluorophenyl)(phenyl)methanone, (4-methoxyphenyl)-(phenyl)-methanone, (4-nitrophenyl)(phenyl)methanone, 1-(pyridin-2-yl)ethanone, acetophenone, 4′-Chloroacetophenone, 4-chlorophenacyl chloride, ethyl 2-oxo-4-phenylbutanoate (OPBE), ethyl 4-chloro-3-oxobutanoate, and methyl 2-oxo-2-phenylacetate.
All the products above were recrystallized from ethyl acetate and gave more than 99.9% optical purity.

[2] = Substrate specificity, specific activity
Method: (§5) Adopting a total reaction system of 200 μL, including: 1.0 mM NADPH, 1.0 mM substrate CPMK and sodium phosphate buffer (PBS, 100 mM, pH 7.0), fully and evenly mixing, maintaining at 30° C. for 2 min, adding an appropriate amount of enzyme solution, and detecting the change in light absorption at 340 nm.
(§6) The enzyme activity was calculated by the following formula: Enzyme activity (U)=EW×V×10^3/(6220×I);
(§7) in the formula, EW is the change in absorbance at 340 nm in 1 min; V is the volume of a reaction solution in mL; 6220 is the molar extinction coefficient of NADPH in L/mol·cm); and 1 is the optical path distance in cm. One activity unit (U) corresponds to the amount of enzyme required to catalyze the oxidation of 1 μmol NADPH per minute under the above conditions.
as §4

[3] = Stereoselectivity (ee) of CPMK reduction, chiral liquid chromatography
Outline: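 ee is calculated from the (S)-CPMA and (R)-CPMA molar concentrations measured by chiral liquid chromatography; conversion also by GC. Samples are ethyl acetate extracts of the reaction, dried and redissolved in ethanol.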

[4] = Asymmetric reduction in 20 mL biocatalytic system, conversion
Method: as §1
The pure (R)-CPMA were recrystallized from ethyl acetate at 4° C. and gave 99.9% optical purity. […] Besides, the conversion cannot reach 100% with 24 h in the asymmetric reduction of (4-bromophenyl)-(phenyl)-methanone and p-nitrobenzophenone due to the low enzyme activity.

[5] = Kinetic analysis of alcohol dehydrogenase and mutants (NADPH oxidation, 340 nm, double reciprocal curve); details: substrate CPMK
Method: as §5, §6, §7
A column used for purification was a nickel affinity column HisTrap FF crude, and purification was achieved through affinity chromatography using a histidine tag on recombinant protein. The nickel column was equilibrated with a solution A first, a crude enzyme solution was loaded, a penetrating peak was further eluted off using the solution A, and after equilibrium, a solution B (20 mM sodium phosphate, 500 mM NaCl, and 1000 mM imidazole, pH 7.4) was used for gradient elution to elute off the recombinant protein bound to the nickel column, so as to obtain the recombinant alcohol dehydrogenase mutant. The purified protein was subjected to activity measurement (CPMK as substrate, and NADPH as coenzyme) and SDS-PAGE analysis. […] The purified alcohol dehydrogenase protein was then replaced into a Tris-HCl (100 mM, pH 7.0) buffer using a Hi Trap Desalting column (GE Healthcare).
The activity of KpADH at different substrate concentrations and coenzyme concentrations was determined, and a double reciprocal curve was made based on the reciprocal of activity and substrate concentration to calculate kinetic parameters.

[6] = Stereoselectivity on different substrates; details: configuration in brackets
Method: as §1, §2, §3, §4

B1: E214S/S237C: serine for glutamate at position 214 and cysteine for serine at position 237 of SEQ ID No. 2 (protein)
chain: MSVLISGASGYIAKHIVRVLLEQNYKVIGTVRSQDKADKLLKQYNNPNLSYEIVPEIANLDAFDDIFKKHGKEIKYVIHAASPVNFGAKDLEKDLVIPAINGTKNMFEAIKKYAPDTVERVVMTASYASIMTPHRQNDPTLTLDEETWNPVTEENAYENVFTAYCASKTFAEKEAWKFVKENSDAVKFKLTTIHPSFVFGPQNFDEDVTKKLNSTCEIINGLLHAPFDTKVEKTHFCQFIDVRDVAKTHVLGFQKDELINQRLLLCNGAFSQQDIVNVFNEDFPELKGQFPPEDKDTDLNKGVTGCKIDNEKTKKLLAFEFTPFHKTIHDTVYQILHKEGRV
modifications: Protein translated from synthetic DNA
ee value ([1]; substrate 4-chlorobenzoyl chloride): 99.6%
Stereoselectivity (ee) ([1]; substrate [drawing 10], acetophenone): 98.9 (R)
Stereoselectivity (ee) ([1]; substrate [drawing 11], 4-chloroacetophenone): 95.6 (R)
Stereoselectivity (ee) ([1]; substrate [drawing 12], 4-chlorobenzoyl chloride): 99.6 (R)
Stereoselectivity (ee) ([1]; substrate [drawing 16], (4-bromophenyl)-(phenyl)-methanone): 90.6 (R)
Stereoselectivity (ee) ([1]; substrate [drawing 17], p-nitrobenzophenone): 91.9 (R)
specific activity ([2]; substrate [drawing 1]): 0.19 U/mg
specific activity ([2]; substrate [drawing 2]): 0.09 U/mg
specific activity ([2]; substrate [drawing 3]): 0.25 U/mg
specific activity ([2]; substrate [drawing 4]): 5.69 U/mg
specific activity ([2]; substrate [drawing 5]): 2.55 U/mg
specific activity ([2]; substrate [drawing 6], 4-chlorophenacyl chloride): 5.96 U/mg
specific activity ([2]; substrate [drawing 7]): 15.58 U/mg
specific activity ([2]; substrate [drawing 8]): 30.69 U/mg
specific activity ([2]; substrate [drawing 9], ethyl 4-chloro-3-oxobutanoate): 1.59 U/mg
configuration of product / stereoselectivity in words [3]: inversion from the R configuration to the S configuration; also recorded: (S)-CPMA
e.e. ([3]; product configuration in brackets): 52.0 (S)
Conversion rate ([4]; 4-chlorobenzoyl chloride 100 mM, 1 h): 66%
Conversion rate ([4]; 4-chlorobenzoyl chloride 100 mM, 2 h): 79%
Conversion rate ([4]; 4-chlorobenzoyl chloride 100 mM, 3 h): 90%
Conversion rate ([4]; 4-chlorobenzoyl chloride 100 mM, 4 h): 98%
Conversion rate ([4]; 4-chlorobenzoyl chloride 100 mM, 6 h): 99.2%
Conversion rate ([4]; 4-chlorobenzoyl chloride 100 mM, 8 h): 99.8%
Conversion rate ([4]; 4-chlorobenzoyl chloride 100 mM, 12 h): >99.9%
Conversion rate ([4]; 4-chlorobenzoyl chloride 100 mM, 24 h): >99.9%
Conversion rate ([4]; 4-chlorobenzoyl chloride 200 mM, 1 h): 55%
Conversion rate ([4]; 4-chlorobenzoyl chloride 200 mM, 2 h): 69%
Conversion rate ([4]; 4-chlorobenzoyl chloride 200 mM, 3 h): 76%
Conversion rate ([4]; 4-chlorobenzoyl chloride 200 mM, 4 h): 85.9%
Conversion rate ([4]; 4-chlorobenzoyl chloride 200 mM, 6 h): 96.4%
Conversion rate ([4]; 4-chlorobenzoyl chloride 200 mM, 8 h): 99.1%
Conversion rate ([4]; 4-chlorobenzoyl chloride 200 mM, 12 h): 99.8%
Conversion rate ([4]; 4-chlorobenzoyl chloride 200 mM, 24 h): >99.9%
Conversion rate ([4]; 4-chlorobenzoyl chloride 500 mM, 1 h): 35.6%
Conversion rate ([4]; 4-chlorobenzoyl chloride 500 mM, 2 h): 49.6%
Conversion rate ([4]; 4-chlorobenzoyl chloride 500 mM, 3 h): 66.4%
Conversion rate ([4]; 4-chlorobenzoyl chloride 500 mM, 4 h): 79.3%
Conversion rate ([4]; 4-chlorobenzoyl chloride 500 mM, 6 h): 89.0%
Conversion rate ([4]; 4-chlorobenzoyl chloride 500 mM, 8 h): 95.6%
Conversion rate ([4]; 4-chlorobenzoyl chloride 500 mM, 12 h): 96.9%
Conversion rate ([4]; 4-chlorobenzoyl chloride 500 mM, 24 h): 98.9%
Kcat [5]: 8.33 ± 0.17 s⁻¹
Km [5]: 400 ± 20 µM
Vmax [5]: 12.5 ± 0.16 µM/min/mg
Stereoselectivity (ee) ([6]; substrate [drawing 13]): 52.6 (R)
Stereoselectivity (ee) ([6]; substrate [drawing 14], likely CPMK (values partly match Table 4)): 52.0 (S)
Stereoselectivity (ee) ([6]; substrate [drawing 15]): 88.1 (R)
Stereoselectivity (ee) ([6]; substrate [drawing 18]): 92.3 (R)
